# In patent EP2017284A1 (INSTITUT PASTEUR, dated 2009):
# B1: caspase 8 catalytic domain (C8 CD) (other)
# chain: EFSKERSSSLEGSPDEFSNGEELCGVMTISDSPREQDSESQTLDKVYQMKSKPRGYCLIINNHNFAKAREKVPKLHSIRDRNGTHLDAGALTTTFEELHFEIKPHDDCTVEQIYEILKIYQLMDHSNMDCFICCILSHGDKGIIYGTDGQEAPIYELTSQFTGLKCPSLAGKPKVFFIQACQGDNYQKGIPVETDSEEQPYLEMDLSSPQTRYIPDEADFLLGMATVNNCVSYRNPAEGTWYIQSLCQSLRERCPRGDDILTILTEVNYEVSNKDDKKNMGKQMPQPTFTLRKKLVFPSD
# notes: range 180-480; also called caspase catalytic domain
# Molecular target: T1, GST-E2 fusion protein (HPV18 E2) (HPV18, UniProt P06790 1-365)
# T1 sequence: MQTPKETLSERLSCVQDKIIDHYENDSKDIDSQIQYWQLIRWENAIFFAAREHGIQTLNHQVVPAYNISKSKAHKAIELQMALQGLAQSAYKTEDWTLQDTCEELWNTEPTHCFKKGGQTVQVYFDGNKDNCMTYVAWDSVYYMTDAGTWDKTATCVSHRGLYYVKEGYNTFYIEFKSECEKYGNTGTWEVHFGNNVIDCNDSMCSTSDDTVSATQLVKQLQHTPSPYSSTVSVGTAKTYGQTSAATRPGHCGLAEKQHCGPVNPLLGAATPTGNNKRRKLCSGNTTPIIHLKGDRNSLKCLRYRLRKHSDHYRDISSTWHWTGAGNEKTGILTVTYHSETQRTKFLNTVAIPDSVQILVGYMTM
# Experiment: GST pull-down of 35S in vitro translated protein, autoradiography
binder,measurement,value
B1,binding result,no binding
